Results published in publication PMC2536506.

Molecular target: GST-TDRD3-Tdr E691K (human)
Assay: pull-down

percent reduction of binding against wild-type GST-TDRD3-Tdr [%] | Substance
50 | DEAD/H box-3 (from UniProt O00571-1 1-662) (natural protein)
90 | Eukaryotic translation elongation factor 1 alpha 1 (from UniProt P68104 1-462) (natural protein)
